# In patent US20220412989A1, “COMPOSITIONS AND METHODS FOR DETECTING CELLS UNDERGOING FERROPTOSIS USING AN ANTIBODY” (THE TRUSTEES OF COLUMBIA UNIVERSITY IN THE CITY OF NEW YORK, priority 2020, published 2022):
# How the values were obtained:
# [1] = molecular target: T1, transferrin receptor protein 1 (Homo sapiens, UniProt P02786); test: Antigen identification by immunoprecipitation-mass spectrometry; format: binding; conditions: HT-1080 cell lysate
# T1 construct: First, we incubated 3F3-FMA with a cell lysate overnight; endogenous in cells; host or cells: HT-1080 (ATCC CRL-7951)
# Protocol: HT-1080 cells were seeded in DMEM (Corning 10-013-CM) and 10% Hi-FBS with 1% penicillin and streptomycin (PS) with 1% MEM Non-Essential Amino Acids Solution (100×) (Thermo Fisher Scientific 11140-076) 16 h prior to use. DMSO or 1 μM of RSL3 was added and incubated for 4 h. Following treatment, the medium was aspirated from each dish and cells were washed twice with PBS. Cells were lysed with 70 μl lysis buffer (RIPA buffer from ThermoFisher, cat. 89900, 1 mM EDTA, 1 mM PMSF, 1× Halt™ protease inhibitor cocktail from ThermoFisher, cat. 78430 and 1× Halt™ phosphatase inhibitor cocktail from ThermoFisher, cat. 78426). Unlysed cells and debris were pelleted for 15 min at 16,000×g at 4° C. The samples were incubated with 10 μg of 3F3 FMA overnight at 4° C. with shaking. […]
# Trypsin digestion was performed overnight at 37° C. […] CID fragmentation was applied with 35% collision energy and resulting fragments were detected using the rapid scan rate in the ion trap. […]
# Raw mass spectrometric data were analyzed using MaxQuant v.1.6.1.0 (Cox and Mann, 2008) (MaxQuant, RRID:SCR_014485) and employed Andromeda for database search (Cox et al., 2011) at default settings with a few modifications. […]
# [2] = molecular target: T2, TfR1 in human brain tissue (Homo sapiens, UniProt P02786); test: Staining of post-mortem human brain tissues; conditions: Huntington's disease and control
# T2 construct: human HD and control brain tissues were fixed in 4% PFA for 24 h; from tissue; host or cells: post-mortem human brain (Huntington's disease and control)
# Protocol: FIGS. 12A-12B show 3F3 FMA staining in human Huntington's disease brains and mouse tissues. In FIG. 12A, human HD and control brain tissues were fixed in 4% PFA for 24 h, perfused in 30% sucrose for 24 h, and stained with DAPI (nuclei, blue) and 3F3 FMA (red). The expression level of TfR1 is low. There was no difference between HD and control groups. In FIG. 12B, mouse liver tissues and mouse GBM tissues were fixed and stained with DAPI (nuclei, blue) and 3F3 FMA (red). 3F3 FMA was able to recognize mouse TfR1.
# Tumor tissues were fixed in 4% paraformaldehyde (PFA) for 24 h at 4° C. followed by washing with PBS three times. The tissues were perfused in 30% sucrose for 24 h at 4° C. for cryo-protection. The samples were embedded in OCT cryostat sectioning medium, and then moved directly into a cryostat. After equilibration of temperature, frozen tumor tissues were cut into 5 μm thick sections. Tissue sections were mounted on to poly-L-lysine coated slides by placing the cold sections onto warm slides. […] All images were captured on a Zeiss LSM 800 confocal microscope at Plan-Apochromat 63x/1.40 Oil DIC objective with constant laser intensity for all analyzed samples. The intensity above threshold of the fluorescent signal of the bound antibodies was analyzed using NIH ImageJ software (ImageJ, RRID:SCR_003070). Data were expressed as fold change comparing with the vehicle.
# T1 sequence (P02786 whole entry): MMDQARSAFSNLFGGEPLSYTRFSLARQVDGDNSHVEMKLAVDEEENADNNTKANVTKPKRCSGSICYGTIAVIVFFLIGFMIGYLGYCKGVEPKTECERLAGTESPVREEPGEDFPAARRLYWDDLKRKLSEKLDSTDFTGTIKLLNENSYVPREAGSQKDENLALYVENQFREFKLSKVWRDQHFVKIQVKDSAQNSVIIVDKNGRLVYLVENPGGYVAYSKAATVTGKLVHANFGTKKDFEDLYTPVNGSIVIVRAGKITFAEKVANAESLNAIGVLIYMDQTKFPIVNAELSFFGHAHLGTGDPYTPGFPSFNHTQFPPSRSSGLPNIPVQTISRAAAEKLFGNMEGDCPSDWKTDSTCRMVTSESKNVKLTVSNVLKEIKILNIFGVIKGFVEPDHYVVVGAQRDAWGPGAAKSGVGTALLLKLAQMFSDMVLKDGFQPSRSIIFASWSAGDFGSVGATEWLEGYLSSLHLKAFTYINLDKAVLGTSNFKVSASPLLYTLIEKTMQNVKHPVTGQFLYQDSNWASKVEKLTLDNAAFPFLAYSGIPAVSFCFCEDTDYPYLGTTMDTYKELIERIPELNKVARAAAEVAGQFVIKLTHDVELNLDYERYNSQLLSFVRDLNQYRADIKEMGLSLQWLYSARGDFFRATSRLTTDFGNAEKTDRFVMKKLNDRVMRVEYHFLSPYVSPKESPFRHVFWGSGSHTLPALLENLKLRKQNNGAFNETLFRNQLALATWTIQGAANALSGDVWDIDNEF
# T2 sequence (P02786 whole entry): as above
molecule,measurement,setting,value
"3F3-FMA: murine monoclonal IgG1 raised against ferroptotic membrane fractions; antigen is human transferrin receptor protein 1 (TfR1) (antibody, V domains shown) VH: EVLLQQSGTELVRPGALVKLSCKASGFNIQDLYIHWVKQRPEQGLEWIGWIDPETDNTIYDPKFQGKASITADTSSNTAYLQLSSLTSEDTAMYYCSTGLLQWYFDVWGAGTAVTVSS VL: DIVMTQSPSSLAMSIGQKVTMRCKSSQSLLNSYNQKNCLAWYQQKPGQSPKLLLYFVSTRESGVPDRFIGSGSGTDFTLTISSVQAEDLADYFCQQHYSTPLTFGAGTKLELK",amino acid coverage of TfR1,[1],53%
same,confidence identification of transferrin receptor protein 1 as target antigen,[1],63%
same,staining signal in human brain tissue,[2],lack of signal
